Reference: patent US20140120095A1 (Boehringer Ingelheim, published 2014)
Residue numbers refer to the chain shown, from its start.

B1: DLLBII102G04 (VHH)
VHH: EVQLMESGGGLVQPGGSLRLSCAASGFTFSSYAMSWVRQAPGKGLEWVSRITSGGRTTYRDSVKGRFTISRDNSKNTLYLQMNSLKPEDTALYYCAKARGDIDVYTLSDSRGQGTQVTVSS
B2: DLLBII104B05 (VHH)
VHH: EVQLVESGGGSVQAGGSLRLSCAASGSISRIDVMAWYRQAPGKERELVASISSGGSTNYADSVKGRFTISREYFKNMMYLQMNSLKFEDTAVYYCNADSRRGGVGNFFRSWGQGTQVTVSS
B3: DLLBII107C03 (VHH)
VHH: EVQLVESGGGLVQPGGSLRLSCEVSGSIGSVSDMRWYRQAPGLQYELVARITSGSITDYSDSVKGRFTISRDNAKNTVYLQMNSLKPEDTAVYYCNADVQHSAWLKPLTYWGQGTQVTVSS
B4: DLLBII112A04 (VHH)
VHH: EVQLVESGGGLVQAGGSLRLSCAAFGRTPYGMGWFRQAPGKEREFVAAITSDGSTNYADSVKGRFTISRDNAKNAVSLQMNSLKPEDTAVYYCTAPYYSDFEGTTTEYDYWGQGTQVTVSS
B5: DLLBII129H04 (VHH)
VHH: EVQLVESRGGLVQAGGSLRLSCAASGRTFSSYAMAWFRQAPGKEREYVAAIRWSGGTAYYADSVQGRFTISRDNAKNTVYLQMNSLKPEDTAVYYCANRAPDTRLEPYLYDHWGQGTQVTVSS
B6: DLLBII129G09 (VHH)
VHH: B5 VHH with R8G, F37Y, G56E
B7: DLLBII129H05 (VHH)
VHH: B5 VHH with R8G, F37Y, Q39L, E106G, H112Y
B8: DLLBII130A05 (VHH)
VHH: B5 VHH with R8G, F37Y, E106G
B9: DLLBII129B02 (VHH)
VHH: B5 VHH with R8G, R19S, F37Y, L109E
B10: DLLBII130B04 (VHH)
VHH: B5 VHH with R8G, E106R
B11: DLLBII129D01 (VHH)
VHH: B5 VHH with R8G, G66S, S71T
B12: DLLBII129G10 (VHH)
VHH: B5 VHH with R8G, F37Y, G66S, L109E
B13: DLLBII129E07 (VHH)
VHH: B5 VHH with R8G, A23S, F37Y, A61P, E106A, L109E
B14: DLLBII130B02 (VHH)
VHH: B5 VHH with R8G, N84Y, E106A
B15: DLLBII129H02 (VHH)
VHH: B5 VHH with R8G, F37Y, E106R, L109E, H112Y
B16: DLLBII130E03 (VHH)
VHH: B5 VHH with R8G, F37Y, L109E
B17: DLLBII129E03 (VHH)
VHH: B5 VHH with R8G, E44D, E106A, H112Y
B18: DLLBII130D06 (VHH)
VHH: B5 VHH with R8G, A23S, F37Y, G56E
B19: DLLBII47D01 (VHH)
VHH: EVQLVESGGGLVQPGGSLRLSCAASGFTFDDYAIGWFRQAPGKEREGVSCISSSGSTYYADSVKGRFTISRDNAKNTVYLQMNSLKPEDTAVYYCAIAGASSWCFPPGYWGQGTQVTVSS
B20: DLLBII101H09 (VHH)
VHH: EVQLVESGGGLVQPGGSLRLSCAASGFTLGYYTIVWFRQAPGKERKGVSCISSRDGSRYYADSVKGRFTISRDNAKNTVYLRMNSLKPEDTAVYYCAAGPDCSSYDYWGQGTQVTVSS
B21: DLLBII112E07 (VHH)
VHH: EVQLVESGGGLVQAGGSLRLSCAASGRTVRSYATGWFRQAPGKEREFVAALRWSIGSIASVYYDDSVKGRFTISGDNAENTVYLQMNALKPEDTAIYYCASTTRGRYSALSASAYDYWGQGTQVTVSS
B22: DLLBII102F08 (VHH)
VHH: EVQLVESGGGLVQTGDSLRLSCAASGSTFSNYRMGWFRQGPGKEREFVAAIGRNGQNTYYTDSVKGRFTVTRDNAKNMVYLQMNSLKPEDSAVYTCAASLRGWDTTRIDYEYWGQGTQVTVSS
B23: DLLBII104A03 (VHH)
VHH: EVQLVESGGGLVQAGGSLRLSCAASGDIPRIAAMGWYRQAPGKQRELVATVSNAATTRYADSAKGRFTISRDNAKTVSLQMDNLKPEDTGVYYCYSLATTVTPSWVNYWGQGTQVTVSS
B24: DLLBII112A03 (VHH)
VHH: EVQLVESGGGLVQPGGSLRLSCAASGIRFSINGMGWYRQAPGKQREAVATITRGGIRDYTDSVKGRFTISRDIARNTVYLQMNNLKPEDSAVYYCNIDIYWGRGTQVTVSS
B25: DLLBII101H05 (VHH)
VHH: EVQLVESGGGSAQAGGSLRLSCAASGRTSSTYAMGWFRQAPGKEHEFVSAIGRGTGATSYGDSVKGRFTISRDNAKNTVYLQMNSLQLEDTGDYYCVAGRGFYHDYSSYEYRGQGTQVTVSS

How the values were obtained:
[1] = target: T1, human DLL4 overexpressed on cells (human, UniProt Q9NR61 27-685); experiment: FMAT, labelled hNotch1-Fc on CHO-hDLL4, periplasmic extract
T1 construct: full length human DLL4 on CHO or HEK293 cells; also called CHO-hDLL4; CHO-hDII4
Source text: (§1) All calculations are based on the FL1_total signal which comprises the average of the fluorescence per well times the number of counts per well.

[2] = target: T2, mouse DLL4 overexpressed on cells (mouse, UniProt Q9JI71 27-686); experiment: FMAT, labelled hNotch1-Fc on CHO-mDLL4, periplasmic extract
T2 construct: whole, on cells; also called CHO-mDLL4; CHO-mDII4
T2 sequence (Q9JI71 27-686): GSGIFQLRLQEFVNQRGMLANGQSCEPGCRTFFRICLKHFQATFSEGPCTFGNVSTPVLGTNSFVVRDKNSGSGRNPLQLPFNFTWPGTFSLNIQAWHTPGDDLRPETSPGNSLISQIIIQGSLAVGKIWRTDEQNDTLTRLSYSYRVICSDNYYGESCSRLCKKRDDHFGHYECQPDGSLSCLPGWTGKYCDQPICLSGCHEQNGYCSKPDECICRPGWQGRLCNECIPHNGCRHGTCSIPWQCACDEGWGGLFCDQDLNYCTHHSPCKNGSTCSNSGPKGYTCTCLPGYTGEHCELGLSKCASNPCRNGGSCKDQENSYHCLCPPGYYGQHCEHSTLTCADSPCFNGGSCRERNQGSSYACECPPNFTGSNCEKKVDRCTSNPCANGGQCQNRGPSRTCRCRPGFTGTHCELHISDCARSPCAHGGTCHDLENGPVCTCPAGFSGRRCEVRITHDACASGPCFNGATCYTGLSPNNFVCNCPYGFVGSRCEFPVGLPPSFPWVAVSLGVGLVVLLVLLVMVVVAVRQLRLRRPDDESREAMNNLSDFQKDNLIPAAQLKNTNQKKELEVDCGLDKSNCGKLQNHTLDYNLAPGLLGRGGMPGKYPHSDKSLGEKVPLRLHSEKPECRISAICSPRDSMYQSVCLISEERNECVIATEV
Source text: as §1

[3] = target: T3, recombinant human DLL4 (C-terminally His-tagged extracellular domain, R&D Systems) (human, UniProt Q9NR61 25-522, biotinylated in the competition ELISA); experiment: ProteOn off-rate screen, periplasmic extract, coated human DLL4
T3 construct: also called rhDLL4; hDLL4
Procedure: (§2) In a first cycle, amino acid substitutions are introduced randomly in both framework (FW) and complementary determining regions (CDR) using the error-prone PCR method. […] After a polish step, PCR products are inserted via unique restriction sites into a vector designed to facilitate phage display of the VHH library. Consecutive rounds of in-solution selections are performed using decreasing concentrations of biotinylated recombinant human DLL4 (biot-rhDLL4) and trypsin elutions. Affinity-driven selections in a third round using cold rhDLL4 (at least 100× excess over biot-rhDLL4) are also performed. No selections on murine DLL4 are included as (conservation of) cross-reactivity is assessed at the screening level. Individual mutants are produced as recombinant protein using an expression vector derived from pUC119, which contains the LacZ promoter, a resistance gene for ampicillin, a multiple cloning site and an ompA leader sequence (pAX50). E. coliTG1 cells are transformed with the expression vector library and plated on agar plates (LB+Amp+2% glucose). Single colonies are picked from the agar plates and grown in 1 mL 96-deep-well plates. VHH expression is induced by adding IPTG (1 mM). Periplasmic extracts (in a volume of ˜80 uL) are prepared according to standard methods and screened for binding to recombinant human and mouse DII4 in a ProteOn (BioRad, Hercules, Calif., USA) off-rate assay. In brief, a GLC ProteOn Sensor chip is coated with recombinant human DII4 on the “ligand channels” L2 and L4 (with L1/L3 as reference channel), while “ligand channels” […] is coated with mouse DII4. Periplasmic extract of affinity-matured clones is diluted 1/10 and injected across the “analyte channels” A1-A6. An average off-rate is calculated of the wild type clones present in the plate and served as a reference to calculate off-rate improvements.

[4] = target: T4, recombinant mouse DLL4 (C-terminally His-tagged extracellular domain, R&D Systems) (mouse, UniProt Q9JI71 27-532); experiment: ProteOn off-rate screen, periplasmic extract, coated mouse DLL4
T4 construct: extracellular domain; also called rmDLL4; mDLL4
T4 sequence (Q9JI71 27-532): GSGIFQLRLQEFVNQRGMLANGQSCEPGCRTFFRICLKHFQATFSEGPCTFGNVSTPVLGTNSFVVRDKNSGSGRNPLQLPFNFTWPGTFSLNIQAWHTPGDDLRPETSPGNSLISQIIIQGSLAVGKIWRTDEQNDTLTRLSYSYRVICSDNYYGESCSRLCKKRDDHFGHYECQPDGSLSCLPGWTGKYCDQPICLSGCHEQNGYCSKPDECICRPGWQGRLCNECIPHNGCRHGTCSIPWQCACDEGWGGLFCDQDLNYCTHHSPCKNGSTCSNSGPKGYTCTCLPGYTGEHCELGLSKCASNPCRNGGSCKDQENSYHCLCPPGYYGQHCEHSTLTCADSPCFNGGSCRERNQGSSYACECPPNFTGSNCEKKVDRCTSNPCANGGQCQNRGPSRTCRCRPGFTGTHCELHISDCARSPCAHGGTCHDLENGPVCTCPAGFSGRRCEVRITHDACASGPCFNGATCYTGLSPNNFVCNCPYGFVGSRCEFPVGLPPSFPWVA
Procedure: as §2

| Binder | % inh [1] [%] | % inh [2] [%] | fold (off-rate vs DLLBII101G08) [3] [fold] | koff [3] [s⁻¹] | fold (off-rate vs DLLBII101G08) [4] [fold] | koff [4] [s⁻¹] |
| --- | --- | --- | --- | --- | --- | --- |
| B1 | 86 | 82 |  |  |  |  |
| B2 | 86 | 78 |  |  |  |  |
| B3 | 75 | 80 |  |  |  |  |
| B4 | 75 | 90 |  |  |  |  |
| B5 |  |  | 33 | 6.8e-05 | 27 | 0.00025 |
| B6 |  |  | 26 | 8.8e-05 | 20 | 0.00034 |
| B7 |  |  | 24 | 9.4e-05 | 19 | 0.00035 |
| B8 |  |  | 24 | 7.5e-05 | 17 | 0.0003 |
| B9 |  |  | 30 | 7.6e-05 | 26 | 0.00026 |
| B10 |  |  | 22 | 8.3e-05 | 17 | 0.00029 |
| B11 |  |  | 26 | 8.5e-05 | 26 | 0.00026 |
| B12 |  |  | 31 | 7.3e-05 | 26 | 0.00026 |
| B13 |  |  | 21 | 0.00011 | 24 | 0.00028 |
| B14 |  |  | 23 | 7.8e-05 | 17 | 0.00029 |
| B15 |  |  | 23 | 9.9e-05 | 19 | 0.00034 |
| B16 |  |  | 24 | 7.5e-05 | 18 | 0.00027 |
| B17 |  |  | 20 | 0.00011 | 18 | 0.00036 |
| B18 |  |  | 26 | 6.9e-05 | 16 | 0.00031 |
| B19 | 87 |  |  |  |  |  |
| B20 | 87 | 75 |  |  |  |  |
| B21 | 80 | 85 |  |  |  |  |
| B22 | 85 | 75 |  |  |  |  |
| B23 | 86 | 83 |  |  |  |  |
| B24 | 72 | 97 |  |  |  |  |
| B25 | 85 | 83 |  |  |  |  |
